Data published in the RNAGym collection of RNA variant scans (doi:10.1021/acssynbio.7b00057).

B1: Pistol ribozyme (parent)
chain: GGGUCGUUGUUCCAUAAUCGCGUGGAUAUGGCACGCAAGUUUCUACCGGGCACCGUAAAUGUCCGACUGGAGCCGUUCGGGCGGCUAUAAACAGACCUCAGGCCCGAAGCGUGGCGGCACCUGCCGCCGGUGGUAAAAAAGAUCGGAAGAGCACACGUCU

Variants of: B1
Test: aptazyme ON/OFF ratio, guanine; higher = stronger switching; co-transcriptional cleavage with and without guanine

Variant | aptazyme ON/OFF ratio
U7G U8A G9A U10C U11A C12A C13G | 1.07
U7G U8A G9A U10C U11A C12A C13U | 1.13
U7G U8A G9A U10C U11A C12A C13A | 1.2
U7G U8A G9A U10C U11C C12G C13G | 1.03
U7G U8A G9A U10C U11C C12G C13A | 1.09
U7G U8A G9A U10C U11C C12G C13U | 1.08
U7G U8A G9A U10C U11A C13U | 1.12
U7G U8A G9A U10C U11A C13A | 1.08
U7G U8A G9A U10C U11A C13G | 1.07
U7G U8A G9A U10C U11G C12U C13G | 1.14
U7G U8A G9A U10C U11G C12U C13U | 1.12
U7G U8A G9A U10C U11G C12U C13A | 1.1
U7G U8A G9A U10G U11A C12G C13G | 1.29
U7G U8A G9A U10G U11A C12G C13U | 1.14
U7G U8A G9A U10G U11A C12G C13A | 1.04
U7G U8A G9A U10A U11G | 1.28
U7G U8A G9A U10A U11C | 1.03
U7G U8A G9A U10A U11C C12A C13A | 1.15
U7G U8A G9A U10A U11C C12A C13G | 1.12
U7G U8A G9A U10A U11C C12A C13U | 1.14
U7G U8A G9A U10G U11A C13U | 1.03

Variant | aptazyme ON/OFF ratio
U7G U8A G9A U10G U11A C13G | 1.06
U7G U8A G9A U10G U11A C13A | 1.06
U7G U8A G9A U10A U11C C12G C13A | 1.11
U7G U8A G9A U10A U11C C12G C13U | 1.1
U7G U8A G9A U10A U11C C12G C13G | 1.05
U7G U8A G9A U10A U11G C12G C13U | 1.17
U7G U8A G9A U10A U11G C12G C13G | 1.12
U7G U8A G9A U10A U11G C12G C13A | 1.1
U7G U8A G9A U10G U11C C12A C13U | 1.14
U7G U8A G9A U10G U11C C12A C13A | 1.1
U7G U8A G9A U10G U11C C12A C13G | 1.09
U7G U8A G9A U10G U11C C12U C13U | 1.1
U7G U8A G9A U10G U11C C12U C13G | 1.12
U7G U8A G9A U10G U11C C12U C13A | 1.1
U7G U8A G9A U10G U11G C13U | 1.26
U7G U8A G9A U10G U11G C13G | 1.34
U7G U8A G9A U10G U11G C13A | 1.29
U7G U8A G9A U10C U11A C12G C13A | 1.11
U7G U8A G9A U10C U11A C12G C13U | 1.12
U7G U8A G9A U10C U11A C12G C13G | 1.07
U7G U8A G9A U10G C12U C13U | 1.13

Variant | aptazyme ON/OFF ratio
U7G U8A G9A U10G C12U C13A | 1.27
U7G U8A G9A U10G C12U C13G | 1.35
U7G U8A G9A U10A U11C C13A | 1.1
U7G U8A G9A U10A U11C C13U | 1.05
U7G U8A G9A U10A U11C C13G | 1.08
U7G U8A G9A U10G U11G C12A C13A | 1.06
U7G U8A G9A U10G U11G C12A C13G | 1.14
U7G U8A G9A U10G U11G C12A C13U | 1.17
U7G U8A G9A U10C C12U C13A | 1.08
U7G U8A G9A U10C C12U C13G | 1.07
U7G U8A G9A U10C C12U C13U | 1.12
U7G U8A G9A U11A C12A C13A | 1.16
U7G U8A G9A U11A C12A C13G | 1.08
U7G U8A G9A U10G U11A C12U | 0.997
U7G U8A G9A U10G U11A C12A | 1.12
U7G U8A G9A U10G U11A C12G | 1.11
U7G U8A G9A U10G U11C C12G C13G | 1.04
U7G U8A G9A U10G U11C C12G C13A | 1.1
U7G U8A G9A U10G U11C C12G C13U | 1.11
U7G U8A G9A U10G C13U | 1.35
U7G U8A G9A U10G C13G | 1.2

Variant | aptazyme ON/OFF ratio
U7G U8A G9A U10G C13A | 1.08
U7G U8A G9A U10C U11C C13G | 1.02
U7G U8A G9A U10C U11C C13U | 1.03
U7G U8A G9A U10C U11C C13A | 1.04
U7G U8A G9A U10G U11G | 1.07
U7G U8A G9A U10G U11A | 1.01
U7G U8A G9A U10G U11C | 1.03
U7G U8A G9A U10C C12G | 1.15
U7G U8A G9A U10C C12U | 1.09
U7G U8A G9A U10C C12A | 1.1
U7G U8A G9A U10A U11C C12U | 1.04
U7G U8A G9A U10A U11C C12A | 1.12
U7G U8A G9A U10A U11C C12G | 1.07
U7G U8A G9A U10G U11C C13U | 1.05
U7G U8A G9A U10G U11C C13G | 1.08
U7G U8A G9A U10G U11C C13A | 1.09
U7G U8A G9A U10C | 2.73
U7G U8A G9A U10G | 1.49
U7G U8A G9A U10A U11C C12U C13A | 1.07
U7G U8A G9A U10A U11C C12U C13U | 1.11
